Laboratory results reported in patent US20260043816A1.

Experiments:
[1] = molecular target: peptides 11 and 23 (human); experiment: pairing sandwich ELISA, biotinylated antibody as detector, target titrated
[2] = molecular target: peptides 11 and 23 (human); experiment: pairing sandwich ELISA, antibody coated as capture, target titrated

B1: ACI-8070-942.30D12-Ab1 (antibody, V domains shown)
VH: DVQLVESGGGLVQPGGSRKLSCEASGFTFSSIGMHWVRQAPEKGLEWVAYITSGSSTIYYADTVKGRFTISRDNPKNTLFLQMTSLRSEDTAIYYCAGSGPGTDYWGQGTTLTVSS
VL: DIKMTQSPSSMYASLGERVTITCKASQDINSYLSWFQQKPGKSPKTLIYRANRLVDGVPSRFSGSGSGQDYSLTISSLEYEDMGIYYCLQYDEFPLTFGAGTKLELK
Binder B1 has an EC50 [1] of 0.056 nM and an EC50 [2] of 0.904 nM.
